Substrate in this data set: NCC(N)C(=O)O
Nature of the data set: purified protein. The format is biochemical, Salmonella enterica. The conditions noted are these: potassium phosphate pH 8.0, 28 °C, PLP, NADH, LDH coupling.

The record followed here is publication PMC101404.

The Km is the substrate concentration at which the rate is half of its maximum.

B1: Diamino propionic acid (DAP) ammonia lyase (Salmonella enterica subsp. enterica serovar Typhimurium str. LT2) (protein)
chain: MHELIKYQFNTRRKKYGTGAALSLLNGNVGHEVLAFHKKLPNYAVTPLHNLAHLSQRLGLGSIHIKDESWRFGLNAFKGLGGSYAVGKYLADKLQCDINSLSFAALNTPEIKEKIKDCVFVTATDGNHGRGVAWAAEQLGLKAVVYMPKGSSLIRAENIRHHGAECTITDLNYDDAVRLAHRMAQTKGWVLLQDTAWTGYEEIPTWIMQGYMTLAVEAYEQLAETNSPLPTHLILQAGVGSFAGSVMGYFVEKMQENIPNIIVVEPHQANCLYQSAVMDDGQPHCVTGDMATIMAGLACGEPNIISWPIIRDNTSCFISADDCLAAKGMRISAAPRPGTDTPFISGESGAIGVGLLYELMNNMHYQDLANRLQLDASAHVLLISTEGDTSPDIYEDIVWNGRSA
Take B1: the Km is 685 µM.
